Variants at the floor of the assay were thinned out.
Assays:
biotinyl-Trp-oxazolone = assay: self-aminoacylation, catalytic enhancement (BWO) (fold over background); higher = more active; k-Seq, kA / k0A0; sequences stand for … in GGGAAUGGAUCCACAUCUACGAAUUC…UUCACUGCAGACUUGACGAAGCUG
Summary of the method: (§1)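 Working in 50 μL HEPES/NaCl/KCl/MgCl2/CaCl2 buffer with 5% acetonitrile at pH 6.9–7.0, mutagenized RNA pools (0.43 μM; 21-nt variable region) were reacted with 2–1250 μM of each biotinyl-aminoacyl-oxazolone for 90 minutes at room temperature. Streptavidin capture followed, with quantification by triplicate qPCR and Illumina sequencing. Catalytic enhancement is reported as median kA over the uncatalyzed rate, the low-activity peak of a bimodal Gaussian fit to the data.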

biotinyl-Ile-oxazolone = assay: self-aminoacylation, catalytic enhancement (BIO) (fold over background); higher = more active; k-Seq, kA / k0A0; sequences stand for … in GGGAAUGGAUCCACAUCUACGAAUUC…UUCACUGCAGACUUGACGAAGCUG
Summary of the method: as §1

biotinyl-Leu-oxazolone = assay: self-aminoacylation, catalytic enhancement (BLO) (fold over background); higher = more active; k-Seq, kA / k0A0; sequences stand for … in GGGAAUGGAUCCACAUCUACGAAUUC…UUCACUGCAGACUUGACGAAGCUG
Summary of the method: as §1

biotinyl-Met-oxazolone = assay: self-aminoacylation, catalytic enhancement (BMO) (fold over background); higher = more active; k-Seq, kA / k0A0; sequences stand for … in GGGAAUGGAUCCACAUCUACGAAUUC…UUCACUGCAGACUUGACGAAGCUG
Summary of the method: as §1

biotinyl-Phe-oxazolone = assay: self-aminoacylation, catalytic enhancement (BFO) (fold over background); higher = more active; k-Seq, kA / k0A0; sequences stand for … in GGGAAUGGAUCCACAUCUACGAAUUC…UUCACUGCAGACUUGACGAAGCUG
Summary of the method: as §1

biotinyl-Val-oxazolone = assay: self-aminoacylation, catalytic enhancement (BVO) (fold over background); higher = more active; k-Seq, kA / k0A0; sequences stand for … in GGGAAUGGAUCCACAUCUACGAAUUC…UUCACUGCAGACUUGACGAAGCUG
Summary of the method: as §1

| Sequence | self-aminoacylation (biotinyl-Trp-oxazolone) | self-aminoacylation (biotinyl-Ile-oxazolone) | self-aminoacylation (biotinyl-Leu-oxazolone) | self-aminoacylation (biotinyl-Met-oxazolone) | self-aminoacylation (biotinyl-Phe-oxazolone) | self-aminoacylation (biotinyl-Val-oxazolone) |
| --- | --- | --- | --- | --- | --- | --- |
| AUUACGCUGGUCCUCGAGUGA [Fam2.1 aminoacylation ribozyme variant] | 6.54 | 4.15 | 6.05 | 6.22 | 44.8 | 4.14 |
| AUUACGCUGGUCUUCGAGUGA [Fam2.1 aminoacylation ribozyme variant] | 5.95 | 3.35 | 5.46 | 4.27 | 12.9 | 3.32 |
| AUUACGCUGGUGAUCGAGUGA [Fam2.1 aminoacylation ribozyme variant] | 5.45 | 2.89 | 5.37 | 4.44 | 25.3 | 2.59 |
| AUUACGGUGGUCAUCGAGUGA [Fam2.1 aminoacylation ribozyme variant] | 3.24 | 2.44 | 2.56 | 2.68 | 5.75 | 2.09 |
| AUUACUAUGGUCAUCGAGUGA [Fam2.1 aminoacylation ribozyme variant] | 8.33 | 3.32 | 6.66 | 6.37 | 22.6 | 3.31 |
| AUUACUCGGGUCAUCGAGUGA [Fam2.1 aminoacylation ribozyme variant] | 6.64 | 3.66 | 8.09 | 6.51 | 28.6 | 3.33 |
| AUUACUCUCGUCAUCGAGUGA [Fam2.1 aminoacylation ribozyme variant] | 4.11 | 2.11 | 3.39 | 2.92 | 8.87 | 2.09 |
| AUUACUCUGGUCAUCGAAUGA [Fam2.1 aminoacylation ribozyme variant] | 0.832 | 1.19 | 1.3 | 1.45 | 0.918 | 1.09 |
| AUUACUCUGGUCAUCGAGUGC [Fam2.1 aminoacylation ribozyme variant] | 1.32 | 1.1 | 1.42 | 1.19 | 0.969 | 1.05 |
| AUUACUCUGGUCAUCGCGUGA [Fam2.1 aminoacylation ribozyme variant] | 18.3 | 8.13 | 17.7 | 16.4 | 117 | 8.12 |
| AUUACUCUGGUUAUCGAGUGA [Fam2.1 aminoacylation ribozyme variant] | 10.5 | 4.17 | 8.76 | 8.17 | 51.3 | 4.2 |
| AUUAGCAUGGUCAUCGAGUGA [Fam2.1 aminoacylation ribozyme variant] | 3.81 | 2.87 | 3.39 | 3.11 | 3.31 | 2.64 |
| AUUAGCCCGGUCAUCGAGUGA [Fam2.1 aminoacylation ribozyme variant] | 7.74 | 3.45 | 6.64 | 6.23 | 55.9 | 3.57 |
| AUUAGCCUAGGUCAUCGGGUG [Fam2.2 aminoacylation ribozyme variant] | 23.3 | 19 | 41.9 | 30.9 | 219 | 15.8 |
| AUUAGCCUGGUAAUCGAGUGA [Fam2.1 aminoacylation ribozyme variant] | 12.8 | 5.28 | 13.3 | 11.6 | 75.9 | 5.07 |
| AUUAGCCUGGUCAACGAGUGA [Fam2.1 aminoacylation ribozyme variant] | 6.82 | 3.71 | 5.61 | 5.21 | 18.2 | 3.45 |
| AUUAGCCUGGUCACCGAGUGA [Fam2.1 aminoacylation ribozyme variant] | 11.4 | 4.14 | 11.5 | 8.98 | 58.3 | 4.65 |
| AUUAGCCUGGUCAUCCAGUGA [Fam2.1 aminoacylation ribozyme variant] | 5.21 | 2.69 | 4.36 | 4.07 | 10.8 | 2.62 |
| AUUAGCCUGGUCAUCGAAUGA [Fam2.1 aminoacylation ribozyme variant] | 1.27 | 1.36 | 1.48 | 1.43 | 1.23 | 1.39 |
| AUUAGCCUGGUCAUCGACUGA [Fam2.1 aminoacylation ribozyme variant] | 0.565 | 1.22 | 1.13 | 1.21 | 1.59 | 1.04 |
| AUUAGCCUGGUCAUCGAGAGA [Fam2.1 aminoacylation ribozyme variant] | 1.35 | 1.63 | 1.43 | 1.08 | 1.49 | 1.25 |
| AUUAGCCUGGUCAUCGAGGGA [Fam2.1 aminoacylation ribozyme variant] | 3.19 | 2.08 | 2.52 | 1.49 | 2.28 | 2.4 |
| AUUAGCCUGGUCCUCGAGUGA [Fam2.1 aminoacylation ribozyme variant] | 5.08 | 2.67 | 5.41 | 4.69 | 36.7 | 2.84 |
| AUUAGCCUGGUGAUCGAGUGA [Fam2.1 aminoacylation ribozyme variant] | 8.57 | 3.98 | 7.61 | 7.43 | 41.1 | 3.62 |
| AUUAUCCUAGGUCAUCGGGUG [Fam2.2 aminoacylation ribozyme variant] | 9.09 | 6.74 | 14.5 | 9.84 | 54.6 | 5.98 |
| AUUAUCCUGGCCAUCGAGUGA [Fam2.1 aminoacylation ribozyme variant] | 2.77 | 1.92 | 2.98 | 2.99 | 13.8 | 1.69 |

| Sequence | self-aminoacylation (biotinyl-Trp-oxazolone) | self-aminoacylation (biotinyl-Ile-oxazolone) | self-aminoacylation (biotinyl-Leu-oxazolone) | self-aminoacylation (biotinyl-Met-oxazolone) | self-aminoacylation (biotinyl-Phe-oxazolone) | self-aminoacylation (biotinyl-Val-oxazolone) |
| --- | --- | --- | --- | --- | --- | --- |
| AUUAUCCUGGGCAUCGAGUGA [Fam2.1 aminoacylation ribozyme variant] | 6.86 | 3.07 | 6.24 | 5.87 | 36.3 | 2.94 |
| AUUAUCCUGGUAAUCGAGUGA [Fam2.1 aminoacylation ribozyme variant] | 16.5 | 5.94 | 14.5 | 13.3 | 96.5 | 5.97 |
| AUUAUCCUGGUCAUCAAGUGA [Fam2.1 aminoacylation ribozyme variant] | 4.39 | 2.3 | 3.5 | 3.84 | 10.1 | 2.2 |
| AUUAUCCUGGUCAUCGACUGA [Fam2.1 aminoacylation ribozyme variant] | 0.498 | 0.875 | 0.941 | 0.65 | 0.418 | 0.785 |
| AUUAUCCUGGUCAUCGAGUGG [Fam2.1 aminoacylation ribozyme variant] | 4.05 | 2.19 | 5.03 | 5.06 | 6.09 | 2.27 |
| AUUCAACUAGGUCAACGGGUG [Fam2.2 aminoacylation ribozyme variant] | 3.38 | 2.4 | 4.91 | 4.31 | 25.5 | 2.31 |
| AUUCAACUAGGUCAGCGGGUG [Fam2.2 aminoacylation ribozyme variant] | 5.13 | 3.15 | 5.11 | 4.12 | 32.2 | 3.29 |
| AUUCAACUAGGUCAUCGAGUG [Fam2.2 aminoacylation ribozyme variant] | 1.84 | 1.55 | 3.13 | 2.2 | 2.85 | 1.45 |
| AUUCAACUAGGUCAUCGGAUG [Fam2.2 aminoacylation ribozyme variant] | 0.549 | 0.675 | 0.772 | 0.66 | 0.801 | 0.708 |
| AUUCAACUAGGUGAUCGGGUG [Fam2.2 aminoacylation ribozyme variant] | 4.01 | 3.02 | 4.01 | 3.11 | 21.9 | 2.76 |
| AUUCAACUCGGUCAUCGGGUG [Fam2.2 aminoacylation ribozyme variant] | 7.4 | 4.15 | 9.77 | 6.48 | 67.4 | 3.84 |
| AUUCAACUUGGUCAUCGGGUG [Fam2.2 aminoacylation ribozyme variant] | 4.45 | 3.85 | 6.72 | 5.25 | 34.1 | 3.29 |
| AUUCACAUAAGUCAUCGGGUG [Fam2.2 aminoacylation ribozyme variant] | 12.4 | 7.61 | 18.3 | 11.8 | 95.4 | 6.79 |
| AUUCACAUACGUCAUCGGGUG [Fam2.2 aminoacylation ribozyme variant] | 6.74 | 4.62 | 9.26 | 7.22 | 53.4 | 4.19 |
| AUUCACAUAGGGCAUCGGGUG [Fam2.2 aminoacylation ribozyme variant] | 4.52 | 3.83 | 3.62 | 4.4 | 20.9 | 3.39 |
| AUUCACAUAGGUCAGCGGGUG [Fam2.2 aminoacylation ribozyme variant] | 5.03 | 3.26 | 4.15 | 3.83 | 22.6 | 2.91 |
| AUUCACAUAGGUCAUCGGAUG [Fam2.2 aminoacylation ribozyme variant] | 0.403 | 0.903 | 0.649 | 0.698 | 0.549 | 0.857 |
| AUUCACAUCGGUCAUCGGGUG [Fam2.2 aminoacylation ribozyme variant] | 5.93 | 4.36 | 9.09 | 8.09 | 57.5 | 4.81 |
| AUUCACCAAGCUCAUCGGGUG [Fam2.2 aminoacylation ribozyme variant] | 1.79 | 2.4 | 2.92 | 2.13 | 9.43 | 2.92 |
| AUUCACCAAGGACAUCGGGUG [Fam2.2 aminoacylation ribozyme variant] | 4.17 | 3.2 | 4.96 | 4.65 | 30 | 3.27 |
| AUUCACCAAGGUCAUCCGGUG [Fam2.2 aminoacylation ribozyme variant] | 7.89 | 5.51 | 11.4 | 7.8 | 59.6 | 4.96 |
| AUUCACCAAGGUCAUCGCGUG [Fam2.2 aminoacylation ribozyme variant] | 12.6 | 7.86 | 20.7 | 16 | 132 | 8.42 |
| AUUCACCAAGGUCAUCGGCUG [Fam2.2 aminoacylation ribozyme variant] | 1.78 | 2.06 | 2.66 | 2.21 | 8.8 | 1.92 |
| AUUCACCAAGGUCAUCGGGUA [Fam2.2 aminoacylation ribozyme variant] | 4.89 | 3.77 | 3.23 | 2.43 | 22.5 | 3.04 |
| AUUCACCAAGGUCAUGGGGUG [Fam2.2 aminoacylation ribozyme variant] | 8.64 | 6.16 | 12.7 | 9.1 | 77.3 | 5.88 |
